Experimental data taken from the DeepSol protein solubility set.

Assay: soluble on expression in E. coli; label from the status in PepcDB or PDB records

Sequence	soluble on expression in E. coli
MGSDKIHHHHHHMIPLHTSMRGLRCFCVAAECLSFKETAKRLYLTPSAVSHQIKQLEESLNQSLFIRQTRAVTLTEVGARFYQAIEPVMQQLVNTVSEFNQSDRMLEVSISMPEFFASELFMPKLIGWSSKYPNINLKLETIKSRSDMIKHTDASIMLSGKQQTNADVYDLFPITYIPACNAQLHAELSSQGFKALTQVPLILHKARPYAWHQWAENVGFDAFQPKQIIQLDSMFSVARAAEQGLGIALIPLPISQAWFDNGTLLSLFPHPLFSHDRYYLIRHTNEQQRPEVQLLIDWILKSFHDESH	not soluble
MGSDKIHHHHHHMIQVLNLTTPETIKNYLHEALGKIEPFEQCILLDYPDHANIGDNLIWLGELLYLHNTRQSQITYNASVENFSVQEMDKCKSSCEIPIFLHGGGNLGDLWLKFQNFREYIISEYKENPIIIFPQSIYFQEEDNLIKAARIFNSHPNLTIFVRDNYSYQLATNYFSNCRIIKSPDAAFQLVNTPGIAAAYQNKSSILYHFRNDKELNLNQAGSPHTLDLPNLIVEDWASYKYESDSYKELPHNAVIQSFARVFHGWEQGKLFPDEWITRQIWKYFHPYTTAFSQSYNPESHRKAWSYMYQGVYQFKQHRLIITNRLHGHILSTLMGIPHIFLPNSYHKNEAFYEAWTYQIPFCRFVKDPEKIADTVRELIEISEIAKN	not soluble
MGSDKIHHHHHHMIRNCFLCAAKTDNVFSSTWMLPGLAPTEIGFSICPKCGSVCQSPSVSYDDMMTIYSSIAVYTNPGRQGLPSSAKIRDLDEQIQFIKRGIGHLPKSAMQIGSSDGYTLSRFRQAGVELVMGVEPGSTSIEIAKRLYNIDCIHGTAEDFETDKDFELILLTHVLEHIYEPQVTLDKCRKIQNTPGEKFIYVEVPLMATAASLCPGFLTFEHVNYYTKENLICSLTQAGYWPVSVVEHFNSNLSPIIGILASTREQHHYDVMKMDVQLNRKRLSEYRQKELSYWQNCVDCIKVSLQQSQRIFLWGAGIHTCQLLANTDLLDHSRIFGLTDTSSLKWGLRQGEWICQDPQQIDWQVGDTVLISSYASEKEIFDALYWLRDKGVNTLRLHNVDDTRAIV	not soluble
MGSDKIHHHHHHMIRSLWIAKTGLDAQQMQMDVIANNLANVSTNGFKKTRAVFEDLLYQNIRQPGAQSSQQTQLPSGLQLGTGVRPVATERIHIQGNLQQTGNNKDVAISGEGFFQVLLPDGSTAYTRDGAFQLDNQGQLVTASGFTVQPAIIVPPNALSLTVGRDGTVSVVLPDNPNNAVQIGTFQLATFINPAGLQSRGENLYIETAASGPANINQPGLNGTGLLVHQYLETSNVNVAEELVSMIQTQRAYEINSKAISTSDQMLQRLSQL	not soluble
MGSDKIHHHHHHMISEYEDIGLHNTCSEDGSFDVVLDSITNIAKYGMGIIAGVFIDMYSIIGNTDSKTIYTVRKGTLADYNARIIARSISGQVINTDPDTVVKMAEEGHMGLVGNEVQVGISYAEFAERLGIYAASCLIAARDQSFRSVLDQYQKGIEFIARNPEVSAEIISRKSNYYDEKTMKRIIGIYRHRLTTLRSDLERSISVYSAVEPSVYRLKILG	not soluble
MGSDKIHHHHHHMISMKIQQILPADPAKAILIGRIWDPVSQGPRVVSVRGEDVFDLSPGVRTVAELMEYENPLEVVLQRTDAPRWDLAEIVEASQGTDRNRPHLLAPIDLQVVKACGVTFVESMIERVIEERCGGDFTRAAEVRKAVADVLGGSLDSVRPGSEQAREAKRILSAQGMWSQYLEVGLGPDPEVFTKAPVLSSVGYGSGVGIPSFSSWNNPEPELVLILNSAGDPLGATLGNDVNLRDVEGRSALLLGMAKDNNASCAIGPLIRLFHKDFTLESLRTEEITLTVEGTDGYRMEGRNSVARISRSFEELIKAAHGSHHQYPDGFALFTGTLFAPTQDRDTEGLGFTHKNGDIVTISSPQLGTLINQTQSTEETEPWTFGITALFRYLAQTGTGGAPSITGSPVSAAPGKSAGMKIGFRN	not soluble
MGSDKIHHHHHHMITVNDLSVQFGKRILFQDVNLTFTPGNCYGIIGANGAGKSTMLRVISKQLDPTRGTVTLGPGERLSVLSQDHFAFDENTVMDTVLMGHSVLWAIMEEKNALYAKPDFSDEDGTRVAELEDKFAEMEGWNAESDAAMLLSGLGIKEDLHYMLMKDLSGKQKVRVLLARALYGKPDNLLLDEPTNDLDLETVSWLENYLSNFENTVLVVSHDRHFLDSVCTHTVDIDFGKVQQFSGNYSFWYESSQLALRQQQQQNKKAEEKRKELEEFIRRFSANVAKSKQTTSRKKMLEKLNIEEITPSSRRYPGILFTPGREPGNKILEVKGLTKSIEGQLLFRDLNFNVEKDDKIVFISRDPRAMTALFSIINGEMTPDEGTYEWGQTITTAYLPLDNSGYFNTDLNLVEWLSQFAKDTNEVFLKGFLGRMLFSGEEILKKASVLSGGEKMRCMISKMMMLDANTLVLDTPTNHLDLESIQAFNNTLKTYRGNVLFASHDHEFIQTVANRIIELTPNGIIDKIMDYDDYITDPIVAEMRQKLYGQ	not soluble
MGSDKIHHHHHHMIVGFAGKLYKNYEKDGIELLKEVTDEALDIAGLNYADVDGIMANIGRGSFHGNRTYLNPPAQISEYFGIKPKIIEHVQYGGPSVLSMIYRAYKAIKAGDAETILCIQGGKISHLRDNHFQKTDIIDSPFDEYIKIYDQMSPISDYAMVAYRHSKLFGTTDEQRARIAVIQRYNASYNPKALFRNPITVEDVLKSRIVSYPLHLLEIVYPIDGFHVFVVSKRSSKSALRNIDILAYGEAHWPNPPAEWDDIIYTPTTESAKRASFDLNRVDAFQLYDSFTITVMLQMEDIGLVEKGKVGQFVESHDLSFKGDVPINTGGGSLNTGQPAYMSGGVILEEALLQLNDMANGHQVKGANVIFLNGIGWWSRRHSVTLVLGERK	not soluble
MGSDKIHHHHHHMIVLIGGEKGGSGKSCLAQNIAVFLTTECNASVIMVDCDPQRTTSDWIQARNNNPKLASINCVQLYGKIRNDLLSLEQHYDVVIVDCGGQDNLALRATMSVAAYILMPLRPKRRDLKTVCHMDDIVATCKMINPKLRASFVITQCPNLPNQANRILEAKEVCKTYDINVLDAITYCRNVYDDSEESGLSVIEIDPNGKAADEIRTIACELFQVDCAANLEDRLHPALLAQSAGKGQMHNGLTNSGLTNNGLLNNGLLHQTQPTHLNTKQRGQNGTQRPQEKRYAI	not soluble
MGSDKIHHHHHHMIVTEHSTRPLGEEGLANYVQRLRGQLSLTQKELSFKAGIHIQTIRKIEGGQTNRLNQKAKGGLAAALGIPPEYLDAAAKKVSPETITTLKFCPKCWTPGTTPDQMWTDLRSKYCFACGTALRNRCVSCNEPIMSLKFKFCPYCGANYKQNQTTS	not soluble
MGSDKIHHHHHHMKDLLTRRFVLNSKEVREGDVFVAVKGKRFDGHDFIDEALRNGAYAIIAERKTVNSDRIFLVESSVDTLAKLAREKLGNFSGTVVGVTGSSGKTTTKEILYNLLKNKRSVFKTPGNMNTEYGLPLSILNDYKGEEILVLEMAASRPGDIAHLCKIAPPDVAVLLNVGSAHLEFFGTRERIMETKMEIIKHSKENAIAVTLFDDPDLRKEVPRYRNTLFFGKEGGDSVLKDWWYYEGSTIAEFEAFDSLFTVKLSGYWNGGQLLNIAASLCVMRTLGETVDIFDLASLKTVPGRFNVREKKGVLIVDDTYNASPEAFQTSIEALLRFPGKKFAVVGAMKELGERSKEFHEELGERLNVLDGVYVFLSEPEAEWIKSKKIILKSDDPEKIAKDLATRVKKGDVVLFKASRAVRIERVLEM	not soluble
MGSDKIHHHHHHMKEKIVLAPQKGPQEMFLATSADICIYGGAAGGGKTFGLLLEPLRYMNNPDYNATIFRRDYTQVTSPGGLWDSSRKIYRYVKGSRPLKTPKLHWTFKRGASVNFAHLGRDEDCDDWQGSQLTMIGFDELTHFSEYQFFYMLSRNRTDSGVKPYVRATCNPDADSWVAEFISWWINQETGYPIPERSGVIRWMVRLNEVVTWFDSREEAVQGAIENGVKPEQAETMPKSVTFIASTLHDNKILMKNDPGYLANLQAMTLVQRERLLHGNWKIKAAAGLMFKRVKVNMLEEIPPDVIKWARGWDLAATSEDEKGDPAYTAGVLIGKRRNGRYIVADVINRRLSSSDVREIIKQTCIADRAKYGRVATRLPQDPGQAGKDQAQSFMKLLAGFTVKCIQESGDKVTRAEPFSAQWLGLEGMDKGNVDVLIAPWNEEYFNECENFPQSKFKDMVDASSSAFTELESGATYSAPPKDSQLGKSSYWNK	not soluble
MGSDKIHHHHHHMKEVKIGKDKISVALCTYNGEKFIREQLRSIVGQTILPWQIVVCDDQSTDRTMDIVREFADDYPSIRWMIIRNEVRLGVRRNFEKAIALAEGDYIAPSDQDDIWERNKLEILLHIMREKKVSLVHSNIRYVDVKGREMTERLDFPCSVPLATYLYGLNNVMGCTCLFCASLKDILFPFPIHYYYHDQWLAIMAYHNGGIYLCDHKLVRYRQHADNVVSAICGGGKREGEELGLSYFVGKAEDIYLLLHRRKQIKYSQKDWWRLAWLYVSNRLGLAWLKFKLL	not soluble
MGSDKIHHHHHHMKEYRIRPREANLSFLEDLDEEQRRAVVESEGRCIVIAGPGSGKTRVITYKIAYLLANGVDPSRILLVTFTRAAAREMVERAKAVTGRELSEMLAGTFHHVCNHFLRKYAPYVGLERNYSILDREDAESLMRHARSKYLERKSKEERKNFPQPSVLMAIYSYMKNTLKSLRESIVVKNPKFLDLKEEISEIFDLYEQEKRSQNVVDYEDLLFYAYRLFEENKEIRDREAERFLWILVDEFQDTNYVQYKIVEHLSSKHGNILAVGDDAQSIYSFRGARYENVEDFIRVPGTKIFKIQTNYRSTESIVKFINAMLPRKSVPKELKPVKKDGMKPVVVKTWDRYEEARFVSQRILELIEEGFKPEEIAVLYRSHSHSLELQMELVRSRIDFRVLSGPRFTESAHVKDVLSFLRIVQNPRDKSAWLRAAKLFYGIGDRTASKIADLASAYVEEGLDPFQELKKVSFSGEYSRFIDILDQIRKLDSPGEMIERVLSSFYSEYLEARYPDFREREMDLERLVEIASRYTSLESFLTDLAVTENVEIEREISQKEGKVTLTTVHQAKGLEWRVVFVISVNPGDFPNYFAISEGNLDEEERIFYVAITRAKEQLYISYQVTGTSYPYRGNRFIMRSGENFIDRIPLELVEFWEVK	not soluble
MGSDKIHHHHHHMKFEVASNVLLQHLQLIARVIASRSTLPILESVLFELEGDQLRLTAADMANRMSTELTVNNVGGENGSFAVPERILLEPLKELPDQPISFEINMETKAAEIAYSNGHYSFVVQDVSTYPVAASLSPEAIVSIVPAEALLSGLSATLFATSQDERRPIMTGVYLDFFEDKLVFVGSDGQILVKQEDANVQSRRRSAFCLPRKACLLLRNVLPRLEGDVTLTYDSNYLHIELGNYTLRARLLEGRYPNYNSVIPTSNPFSVKVDRAQLLSGAKRVSIFSNPATSMLRMEFTPAGIRLSANDIDFSVAAEEHVPAECPADINMRIGFKSDVFQTILQGMPSEEVIMTLADQTRAGLILPAENAPGISLCNLLLPMKLIGE	not soluble
MGSDKIHHHHHHMKFPLLLALLVGGASALHLSSETSDSKSPLMDENLPRDAEISGPEGEECPPGEELMPLEGEKEEGSGSEGVPGDEGAVSGQDVTDVDLQCPKEEDTTSLMGDSGCKTCRYLLVRRAECFDKAQSVCRRCYRGTLASIHSFSVNFGIQSAVRGINQGQVWIGGRIKGWGRCKRFRWVDGSSWNFAYWAAGQPCPGGGRCVTLCTQGGHWRLSHCVKRRPFICSY	not soluble
MGSDKIHHHHHHMKFSINRQKTIEIIGEYSNILKDNPVKPSLAGLFIQAKNNQVVFKGANTEIELIRYANCEIESEGQVLIKPALLLEYIKLLEGENINFEKKDGYLIVNNAEFSILDDNTYPELTEIIPIVIASENTVKFTMSLEKVKFLTNSSASTDTLFNSIKMIFKDNVLELVSTDSFRLIYMKKELNNMINKDVLVPGDSIAVLYKIFKDLDEEFSLAASDDKLIVTWKDAYFTCKLLSLSFPDFRPLINNTNHDKRFEFNRDELNLALKKVISVTKNSSDSKNVATFNFKGNQLLISGVSANAKINQKVNMIKTGEDLKLGMNCKYIKDFIDNVDKNIIIDATNSSSMLRFMEEGNENYIYLIMPVNIRV	not soluble
